Assay results reported in patent publication US6950754.

Target: GCN4-p1
Experiment: size exclusion chromatography, self-association

GCN4-p1 (peptide; modification not given), sequence (chain, as listed by the source): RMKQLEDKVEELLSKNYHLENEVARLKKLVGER

GCN4-p1 (peptide; modification not given)
oligomerization state (N): 2
